Where no end group is shown, it is not given here.

The experiment has as its target T1, FRQ-interacting RNA Helicase (FRH), a.a. 100-1106, with 6x His-tag (N. crassa, UniProt Q1K502 100-1106).
T1 construct: The preparation was only about 30% FRH; the other proteins were left in on purpose; also called FRHΔ100; E. coli expressed FRH; source: E. coli BL21 (DE3), Ni-NTA eluate, de-salted and buffer-exchanged to PBS (~30% FRH by Coomassie gel); not shown: His6, N-terminal, kept
T1 sequence (looked up): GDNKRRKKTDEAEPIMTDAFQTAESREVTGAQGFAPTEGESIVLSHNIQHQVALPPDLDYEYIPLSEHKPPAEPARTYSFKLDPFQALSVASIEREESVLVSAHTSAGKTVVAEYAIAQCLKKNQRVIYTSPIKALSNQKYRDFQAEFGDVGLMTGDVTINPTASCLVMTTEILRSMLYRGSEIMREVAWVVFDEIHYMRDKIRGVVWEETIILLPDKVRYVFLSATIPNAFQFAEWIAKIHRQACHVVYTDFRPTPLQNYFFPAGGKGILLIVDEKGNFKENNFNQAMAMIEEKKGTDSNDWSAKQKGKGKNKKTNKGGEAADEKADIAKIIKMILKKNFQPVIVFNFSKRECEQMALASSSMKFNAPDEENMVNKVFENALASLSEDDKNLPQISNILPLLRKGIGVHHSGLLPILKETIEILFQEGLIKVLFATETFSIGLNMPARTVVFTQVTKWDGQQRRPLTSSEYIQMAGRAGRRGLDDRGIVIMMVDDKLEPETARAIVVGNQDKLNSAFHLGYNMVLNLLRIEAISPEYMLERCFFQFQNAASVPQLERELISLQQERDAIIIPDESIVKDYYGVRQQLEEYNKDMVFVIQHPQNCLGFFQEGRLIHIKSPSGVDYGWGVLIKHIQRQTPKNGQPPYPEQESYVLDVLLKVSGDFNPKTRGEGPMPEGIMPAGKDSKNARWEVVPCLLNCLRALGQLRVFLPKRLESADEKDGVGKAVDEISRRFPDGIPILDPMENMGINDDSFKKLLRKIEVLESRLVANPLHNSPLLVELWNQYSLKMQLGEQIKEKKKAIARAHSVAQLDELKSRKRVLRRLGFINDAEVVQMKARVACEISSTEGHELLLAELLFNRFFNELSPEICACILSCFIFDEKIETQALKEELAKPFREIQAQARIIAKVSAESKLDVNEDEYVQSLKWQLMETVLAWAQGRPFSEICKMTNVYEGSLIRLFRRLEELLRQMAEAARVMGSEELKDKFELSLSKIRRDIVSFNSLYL
In words: peptide or protein array; LOCATE Library II: rationally designed FRQ peptides (parents, scrambles, truncations, substitutions) spotted on slides; ~100 nM FRH in solution, room temperature, PBS pH 7.0; read with anti-His and chemiluminescence; FRH preparation ~30% pure. The conditions noted are these: both partners purified.

B1: FRQ peptide MTDKEKKKLVVRRLE (near the FCD-1 region) (peptide)
peptide: Ac-MTDKEKKKLVVRRLE
notes: Made from C- to N-terminus on cellulose; printed as a peptide-cellulose stock; source: synthetic peptide (Fmoc, on cellulose disks, spotted on nitrocellulose-coated slides)
On to B1, for which the binding result is reported as “binds”.

These data come from PMC11045787, “Disordered clock protein interactions and charge blocks turn an hourglass into a persistent circadian oscillator” (Nature Communications, 2024).
